The values below come from US5869641.

The target in this data set is CD4 (extracellular domain, aa 1-370) (Homo sapiens) (UniProt P01730). As to the kind of experiment: flow. The following applies: 2'-F on all C and U; +-0.08; multimeric SA-PE complex, 3.2 RNA per SA-PE; L200-CD4 beads, PBS, 2 mM MgCl2, BSA, room temp.

The Kd is the equilibrium constant for the complex coming apart. A higher Kd goes with weaker binding. “GGGAGACAAGAAUAAACGCUCAANNNNNNNNNNNNNNNNNNNNNNNNNNNNNNNNNNNNNNNNUUCGACAGGAGGCUCACAACAGGC [15th round enriched RNA pool]” gave a Kd of 1.5 nM.
